According to US20220041738A1 (SAITAMA MEDICAL UNIVERSITY, published 2022):
Residue numbers refer to the chain shown, from its start.

Legend:
Assay in all cases: immunofluorescence (legend of FIG. 4)
[1] = molecular target: T1, human ALK2-R375P on cells (human, UniProt Q04771 21-509)
T1 sequence: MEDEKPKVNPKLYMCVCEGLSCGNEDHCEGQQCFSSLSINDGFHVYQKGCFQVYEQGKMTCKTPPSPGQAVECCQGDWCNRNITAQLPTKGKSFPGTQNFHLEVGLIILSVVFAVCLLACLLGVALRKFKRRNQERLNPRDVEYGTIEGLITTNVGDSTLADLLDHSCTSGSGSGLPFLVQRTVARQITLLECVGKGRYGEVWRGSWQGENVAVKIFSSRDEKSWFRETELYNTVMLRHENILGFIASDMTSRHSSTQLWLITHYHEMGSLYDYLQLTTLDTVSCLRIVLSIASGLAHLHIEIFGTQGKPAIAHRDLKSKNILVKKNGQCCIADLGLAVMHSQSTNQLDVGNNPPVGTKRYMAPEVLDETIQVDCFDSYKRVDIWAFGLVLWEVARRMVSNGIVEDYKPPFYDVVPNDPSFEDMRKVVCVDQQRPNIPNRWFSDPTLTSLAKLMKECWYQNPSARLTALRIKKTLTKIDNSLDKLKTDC
Protocol: (§1) Mouse C2C12 cells were seeded into a 96-well plate (Greiner Bio-One) at 0.5×10³ cells/well, and cultured in 15% FBS-containing DMEM medium overnight under the conditions of 5% CO₂ at 37° C. On the following day, the C2C12 cells were transfected with each of a wild-type human ALK2 cDNA integrated into pcDEF3; pcDEF3/human ALK2-L196P, pcDEF3/human ALK2-P197_F198delinsL, pcDEF3/human ALK2-R202I, pcDEF3/human ALK2-R206H, pcDEF3/human ALK2-Q207E, pcDEF3/human ALK2-R258S, pcDEF3/human ALK2-G325A, pcDEF3/human ALK2-G328E, pcDEF3/human ALK2-G328R, pcDEF3/human ALK2-G328W, pcDEF3/human ALK2-G356D, and pcDEF3/human ALK2-R375P, which are variants identified in FOP; and pcDEF3 as a control, using Lipofectamine 2000 (Invitrogen), and further cultured overnight.
(§2) The C2C12 cells were fixed with 10% neutral formalin (Nacalai Tesque, Japan) for 20 minutes at room temperature, and then blocked with 10% goat normal serum for 30 minutes. After the blocking agent was removed, purified IgG diluted to 10 μg/mL with the blocking agent was added, and the cells were left for 1 hour at room temperature. After the cells were washed with PBS three times, Goat Alexa 594-conjugated anti-rat IgG (Invitrogen) diluted to 1:1000 with the blocking agent was added, and the cells were left for 1 hour at room temperature. After the cells were washed with PBS three times, the cells were fixed with 10% neutral formalin for 15 minutes at room temperature, and nuclear-stained with DAPI (LifeTechnologies). Fluorescent signals were analyzed with a fluorescence microscope BZ-9000 (Keyence).

[2] = molecular target: T2, human ALK2-R206H on cells (human, UniProt Q04771 21-509)
T2 sequence: T1 sequence with R186H, P355R
Protocol: as §1, §2

[3] = molecular target: T3, human ALK2-R202I on cells (human, UniProt Q04771 21-509)
T3 sequence: T1 sequence with R182I, P355R
Protocol: as §1, §2

[4] = molecular target: T4, human ALK2-G328R on cells (human, UniProt Q04771 21-509)
T4 sequence: T1 sequence with G308R, P355R
Protocol: as §1, §2

Measured: binding result

B1: rat anti-ALK2 monoclonal antibody A2-11E (antibody, V domains shown)
VH: EVQLVETGGGLVQPGRSLKLSCVASGFTFSNYYMYWIRQAPGKGLEWISSINTDGGSTYYPDSVKGRFAISRDNAENTVYLQMNSLRSEDTATYYCAKSTPNIPLAYWGQGTLVTVSS
VL: DIQMTQSPSLLSASVGDRVTLSCKASQNIYKYLNWFQQKLGEAPKLLIYYSNSLQTGIPSRFSGSGSGTDFTLTISSLQPEDVAIYFCFQYSSGPTFGPGTKLELKR
notes: Rat monoclonal IgG from a hybridoma; also called 11E2
binds: [1] | [2] | [3] | [4]

B2: rat anti-ALK2 monoclonal antibody A2-15A (antibody, V domains shown)
VH: EVQLVESGGGLVQPGRSLKLSCAASGFTFSHYYMAWVRQAPTKGLEWVASITNSGGSINYRDSVKGRFTISRDNAKSTLYLQMDSLRSEDTATYYCTREGGENYGGYPPFAYWGQGTLVTVSS
VL: DIVLTQSPALAVSLGQRATISCRANQGVSLSRYNLMHWYQQKPGQKPKLLIYRSSNLASGIPARFSGSGSGTDFTLTINPVQADDIATYYCQQSRESPFTFGAGTKLELKR
notes: Rat monoclonal IgG from a hybridoma; also called 15A6
binds: [1] | [2] | [3] | [4]
